Target: vhl_human VHL (UniProt P40337)
Sequence (P40337 whole entry, looked up): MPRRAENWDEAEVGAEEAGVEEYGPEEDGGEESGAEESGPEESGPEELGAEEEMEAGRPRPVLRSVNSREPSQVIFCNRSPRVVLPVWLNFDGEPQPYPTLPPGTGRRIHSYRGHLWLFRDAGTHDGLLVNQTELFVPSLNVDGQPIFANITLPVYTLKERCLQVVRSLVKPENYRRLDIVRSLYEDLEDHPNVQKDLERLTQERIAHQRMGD

Chain of T-complex protein 1 subunit alpha (Saccharomyces cerevisiae), P12612 L326A (P12612 whole entry L326A, one chain of several): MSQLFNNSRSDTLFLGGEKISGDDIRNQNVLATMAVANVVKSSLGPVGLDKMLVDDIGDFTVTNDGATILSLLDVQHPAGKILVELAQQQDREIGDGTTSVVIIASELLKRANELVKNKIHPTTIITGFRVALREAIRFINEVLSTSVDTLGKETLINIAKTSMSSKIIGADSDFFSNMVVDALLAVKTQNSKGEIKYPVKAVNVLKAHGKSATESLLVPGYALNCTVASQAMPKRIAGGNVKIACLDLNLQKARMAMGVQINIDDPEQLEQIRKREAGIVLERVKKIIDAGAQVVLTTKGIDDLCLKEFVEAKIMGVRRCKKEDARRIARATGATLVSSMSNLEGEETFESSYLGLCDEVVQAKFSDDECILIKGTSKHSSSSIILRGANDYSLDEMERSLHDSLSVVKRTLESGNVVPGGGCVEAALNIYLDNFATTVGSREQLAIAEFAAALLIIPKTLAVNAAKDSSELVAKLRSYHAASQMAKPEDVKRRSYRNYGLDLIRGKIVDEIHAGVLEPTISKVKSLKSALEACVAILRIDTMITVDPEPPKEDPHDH
Chain of T-complex protein 1 subunit alpha (Saccharomyces cerevisiae), P12612 V311A (P12612 whole entry V311A, one chain of several): as the sequence (P12612 whole entry L326A, one chain of several) above, with V311A, A326L counted along it
Chain of T-complex protein 1 subunit alpha (Saccharomyces cerevisiae), P12612 R319A (P12612 whole entry R319A, one chain of several): as the sequence (P12612 whole entry L326A, one chain of several) above, with R319A, A326L counted along it
Chain of T-complex protein 1 subunit alpha (Saccharomyces cerevisiae), P12612 L305A (P12612 whole entry L305A, one chain of several): as the sequence (P12612 whole entry L326A, one chain of several) above, with L305A, A326L counted along it

| Substance | effect of a mutation on the interaction |
| --- | --- |
| T-complex protein 1 subunit alpha (Saccharomyces cerevisiae), P12612 L305A | decreasing interaction strength |
| T-complex protein 1 subunit alpha (Saccharomyces cerevisiae), P12612 L326A | decreasing interaction strength |
| T-complex protein 1 subunit alpha (Saccharomyces cerevisiae), P12612 R319A | decreasing interaction strength |
| T-complex protein 1 subunit alpha (Saccharomyces cerevisiae), P12612 V311A | decreasing interaction strength |

Reference: IntAct's records for PubMed 25416944
